The values below come from patent US20150203577A1 (Chugai, published 2015).

Numbering of substitutions follows the chain as printed. Numbers in names are those of the source.

Sequences and labels used below:
T1: mouse FcγRII extracellular domain with C-terminal His tag (mouse, UniProt P08101 30-210)
T1 construct: Made on the basis of NCBI NP-034317.1; also called mFcγRII; mFcgRII
T1 sequence: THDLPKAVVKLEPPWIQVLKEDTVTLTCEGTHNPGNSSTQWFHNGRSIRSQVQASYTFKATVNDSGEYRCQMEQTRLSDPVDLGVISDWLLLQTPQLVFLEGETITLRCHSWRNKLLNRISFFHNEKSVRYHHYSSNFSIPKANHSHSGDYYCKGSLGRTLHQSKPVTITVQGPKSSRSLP

T2: mouse FcγRIII extracellular domain with C-terminal His tag (mouse, UniProt P08508 31-215)
T2 construct: Made on the basis of NCBI NP-034318.2; also called mFcγRIII; mFcgRIII
T2 chain: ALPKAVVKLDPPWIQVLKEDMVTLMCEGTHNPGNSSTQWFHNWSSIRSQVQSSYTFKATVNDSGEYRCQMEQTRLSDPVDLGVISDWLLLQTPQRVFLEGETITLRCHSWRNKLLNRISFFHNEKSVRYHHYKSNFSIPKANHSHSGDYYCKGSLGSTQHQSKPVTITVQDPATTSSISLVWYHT

B1: H237-MB373/MRAL-k0 (antibody, mouse IgG1, kappa)
heavy: QVQLQESGPGLVKPSETLSLTCAVSGHSISHDHAWSWVRQPPGEGLEWIGFISYSGITNYNPSLQGRVTISRDNSKNTLYLQMNSLRAEDTAVYYCARSLARTTAMDYWGEGTLVTVSSAKTTPPSVYPLAPGSAAQTNSMVTLGCLVKGYFPEPVTVTWNSGSLSSGVHTFPAVLQSDLYTLSSSVTVPSSTWPSETVTCNVAHPASSTKVDKKIVPRDCGCKPCICEAYEVEDVFIFPPKPKDVLTITLTPKVTCVVVDISKDDPEVQFSWFVDDVEVHTAQTQPREEQFNSTFRSVSELPIMHQDWLNGKEFKCRVNSAAFPAPIEKTISKTKGRPKAPQVYTIPPPKEQMAKDKVSLTCMITDFFPEDITVEWQWNGQPAENYKNTQPIMDTDGSYFVYSKLNVQKSNWEAGNTFTCSVLHEGLHNHHTEKSLSHSPGK
light: not shown
notes: mIgG1 with T230E/V231A/P232Y/S238E/S239D (EU); template T1; copies: 2 + 2
B2: H237-MB425/MRAL-k0 (antibody, mouse IgG1, kappa)
heavy: B1 heavy with E229I, A230P, Y231A
light: not shown
notes: mIgG1 with T230I/V231P/P232A/S238E/S239D (EU); template T7; copies: 2 + 2
B3: H237-MB397/MRAL-k0 (antibody, mouse IgG1, kappa)
heavy: B1 heavy with A230T
light: not shown
notes: mIgG1 with T230E/V231T/P232Y/S238E/S239D (EU); template T4; copies: 2 + 2
B4: H237-MB387/MRAL-k0 (antibody, mouse IgG1, kappa)
heavy: B1 heavy with A230N
light: not shown
notes: mIgG1 with T230E/V231N/P232Y/S238E/S239D (EU); template T3; copies: 2 + 2
B5: H237-MB432/MRAL-k0 (antibody, mouse IgG1, kappa)
heavy: B1 heavy with E229Q, A230P, Y231N
light: not shown
notes: mIgG1 with T230Q/V231P/P232N/S238E/S239D (EU); template T9; copies: 2 + 2
B6: H237-MB389/MRAL-k0 (antibody, mouse IgG1, kappa)
heavy: B1 heavy with A230P, Y231A
light: not shown
notes: mIgG1 with T230E/V231P/P232A/S238E/S239D (EU); template T6; copies: 2 + 2
B7: H237-MB379/MRAL-k0 (antibody, mouse IgG1, kappa)
heavy: B1 heavy with A230V
light: not shown
notes: mIgG1 with T230E/P232Y/S238E/S239D (EU); template T5; copies: 2 + 2
B8: H237-MB390/MRAL-k0 (antibody, mouse IgG1, kappa)
heavy: B1 heavy with A230P, Y231N
light: not shown
notes: mIgG1 with T230E/V231P/P232N/S238E/S239D (EU); template T8; copies: 2 + 2
B9: H237-MB382/MRAL-k0 (antibody, mouse IgG1, kappa)
heavy: B1 heavy with A230D
light: not shown
notes: mIgG1 with T230E/V231D/P232Y/S238E/S239D (EU); template T2; copies: 2 + 2
B10: H237-MB524/MRAL-k0 (antibody)
heavy: B1 heavy with A230P, Y231N, D235W
light: not shown
notes: copies: 2 + 2

The target in one assay is T1, mouse FcγRII extracellular domain with …. The assay can be described thus: SPR Biacore T200.
For orientation: Kd means the equilibrium constant for the complex coming apart. For the molecule B1, binding was characterised by a dissociation constant (Kd) of 0.538 nM and the “relative mFcγRII-binding activity (mIgG1 = 1)” value was determined as 390.
On to B2, for which the “relative mFcγRII-binding activity (mIgG1 = 1)” value came out at 194.
As to B3, binding was put at a Kd of 0.379 nM and the “relative mFcγRII-binding activity (mIgG1 = 1)” value came to 555.
B4: the Kd was found to be 0.659 nM and the “relative mFcγRII-binding activity (mIgG1 = 1)” value amounted to 319.
Regarding B5, binding was put at a Kd of 0.613 nM and the “relative mFcγRII-binding activity (mIgG1 = 1)” value was 343.
Consider B6, for which binding was characterised by a dissociation constant (Kd) of 0.858 nM and the “relative mFcγRII-binding activity (mIgG1 = 1)” value was determined as 245.
As for B7, the dissociation constant Kd amounted to 0.768 nM and the “relative mFcγRII-binding activity (mIgG1 = 1)” value is 273.
The matching figures for B8: 0.403 nM and 522.
Take B9: the affinity, expressed as Kd, was 0.655 nM and the “relative mFcγRII-binding activity (mIgG1 = 1)” value stood at 321.

In the next assay the target is T2, mouse FcγRIII extracellular domain with …. The assay can be described thus: SPR Biacore T200. (Surface plasmon resonance follows binding to a sensor surface in real time, without labels.)
Consider B1, for which the Kd was determined as 18.2 nM and the “relative mFcγRIII-binding activity (mIgG1 = 1)” value came out at 15.5.
On to B2, for which the “relative mFcγRIII-binding activity (mIgG1 = 1)” value came to 5.5.
As to B3, binding was characterised by a dissociation constant (Kd) of 14.6 nM and the “relative mFcγRIII-binding activity (mIgG1 = 1)” value amounted to 19.3.
On to B4, for which binding was put at a Kd of 16.9 nM and the “relative mFcγRIII-binding activity (mIgG1 = 1)” value was 16.7.
For B5, the Kd was determined as 26.4 nM and the “relative mFcγRIII-binding activity (mIgG1 = 1)” value was 10.7.
Turning to B6, the Kd was found to be 40.6 nM and the “relative mFcγRIII-binding activity (mIgG1 = 1)” value is 7.
Turning to B7, the Kd was 23.2 nM and the “relative mFcγRIII-binding activity (mIgG1 = 1)” value is 12.2.
On to B8, for which binding was put at a Kd of 23.7 nM and the “relative mFcγRIII-binding activity (mIgG1 = 1)” value is 11.9.
As for B9, the Kd is 23 nM and the “relative mFcγRIII-binding activity (mIgG1 = 1)” value stood at 12.3.

A further assay has as its target T1, mouse FcγRII extracellular domain with …. The assay can be described thus: SPR Biacore T200. The source holds these as a separate data set.
B1: the “relative mFcγRII-binding activity (mIgG1 = 1)” value is 390.
The same measure, in the same setting: under B2 stands 194.
On the same count and under the same terms, under B3 stands 555.
Still for that read-out and setting: under B4 stands 319; under B5, 343; under B6, 245.
As to B10, the “relative mFcγRII-binding activity (mIgG1 = 1)” value amounted to 10.
Turning to B7, the “relative mFcγRII-binding activity (mIgG1 = 1)” value was determined as 273.
On to B8, for which the “relative mFcγRII-binding activity (mIgG1 = 1)” value was found to be 522.
Turning to B9, the “relative mFcγRII-binding activity (mIgG1 = 1)” value is 321.

Another assay concerns the target T2, mouse FcγRIII extracellular domain with …. The assay can be described thus: SPR Biacore T200. This is another data set of the same source.
For the molecule B1, the “relative mFcγRIII-binding activity (mIgG1 = 1)” value worked out at 15.5.
As to B2, the “relative mFcγRIII-binding activity (mIgG1 = 1)” value is 5.5.
On to B3, for which the “relative mFcγRIII-binding activity (mIgG1 = 1)” value turned out to be 19.3.
Consider B4, for which the “relative mFcγRIII-binding activity (mIgG1 = 1)” value amounted to 16.7.
For the molecule B5, the “relative mFcγRIII-binding activity (mIgG1 = 1)” value turned out to be 10.7.
With B6, the “relative mFcγRIII-binding activity (mIgG1 = 1)” value is 7.
With B10, the “relative mFcγRIII-binding activity (mIgG1 = 1)” value was 0.3.
Take B7: the “relative mFcγRIII-binding activity (mIgG1 = 1)” value was 12.2.
As for B8, the “relative mFcγRIII-binding activity (mIgG1 = 1)” value stood at 11.9.
The same measure, in the same setting: under B9 stands 12.3.

The target of another assay is T1, mouse FcγRII extracellular domain with …. Put plainly: SPR Biacore T200. This is another data set of the same source. The method, then: (§1) Each altered antibody was analyzed for its interaction with each Fcγ receptor prepared above using Biacore T100 (GE Healthcare Japan Corp.), Biacore T200 (GE Healthcare Japan Corp.), Biacore A100, or Biacore 4000. The running buffer used was HBS-EP+ (GE Healthcare Japan Corp.). The assay temperature was set to 25° C. The sensor chips used were chips prepared by immobilizing Protein L (ACTIGEN or BioVision) onto Series S Sensor Chip CM5 (GE Healthcare Japan Corp.) or Series S Sensor Chip CM4 (GE Healthcare Japan Corp.) by the amine coupling method.
(§2) In order to calculate the KD value of each altered antibody for FcγR, kinetic analysis was conducted according to the following method: first, the antibody of interest was captured onto any of these chips and allowed to interact with mFcγR diluted with a running buffer. For the obtained sensorgram, the assay results were globally fit into the 1:1 Langmuir binding model using Biacore Evaluation Software to calculate an association rate constant ka (L/mol/s) and a dissociation rate constant kd (1/s). From these values, the dissociation constant KD (mol/L) was calculated.
Molecule B1 registered a Kd of 0.538 nM.
Molecule B2 had a Kd of 1.08 nM.
B3: the Kd stood at 0.379 nM.
The same measure, in the same setting: next, B4: 0.659 nM.
The molecule B5 showed a Kd of 0.613 nM.
In turn, B6 had a Kd of 0.858 nM.
The molecule B10 registered a Kd of 21 nM.
Molecule B7 came in with a Kd of 0.768 nM.
For the molecule B8, binding was put at a Kd of 0.403 nM.
B9: binding was put at a Kd of 0.655 nM.

The next assay deals with T2, mouse FcγRIII extracellular domain with …. The assay can be described thus: SPR Biacore T200. This is another data set of the same source. The method, then:
as §1, §2
Molecule B1 returned a Kd of 18.2 nM.
B2 showed a Kd of 51 nM.
Still for that read-out and setting: under B3 stands 14.6 nM.
B4 returned a Kd of 16.9 nM.
Same read-out and setting: next, B5: 26.4 nM.
Regarding B6, the Kd was found to be 40.6 nM.
As to B10, binding was characterised by a dissociation constant (Kd) of 837 nM.
With B7, the Kd came out at 23.2 nM.
Regarding B8, the affinity, expressed as Kd, was 23.7 nM.
Consider B9, for which the affinity, expressed as Kd, was 23 nM.

For a further assay, the target named is T1, mouse FcγRII extracellular domain with …. The assay can be described thus: SPR Biacore T200; KD mFcγRIII / KD mFcγRII.
Regarding B1, the “I/A (mFcγRII selectivity)” value came out at 33.8 and the “relative I/A (mFcγRII selectivity) (mIgG1 = 1)” value amounted to 25.2.
Take B2: the “relative I/A (mFcγRII selectivity) (mIgG1 = 1)” value is 35.2.
For the molecule B3, the “I/A (mFcγRII selectivity)” value was 38.7 and the “relative I/A (mFcγRII selectivity) (mIgG1 = 1)” value worked out at 28.9.
With B4, the “I/A (mFcγRII selectivity)” value was 25.6 and the “relative I/A (mFcγRII selectivity) (mIgG1 = 1)” value was 19.1.
Turning to B5, the “I/A (mFcγRII selectivity)” value was found to be 43.1 and the “relative I/A (mFcγRII selectivity) (mIgG1 = 1)” value stood at 32.2.
Take B6: the “I/A (mFcγRII selectivity)” value was determined as 47.3 and the “relative I/A (mFcγRII selectivity) (mIgG1 = 1)” value came to 35.3.
Turning to B7, the “I/A (mFcγRII selectivity)” value was 30.2 and the “relative I/A (mFcγRII selectivity) (mIgG1 = 1)” value worked out at 22.5.
In the case of B8, the “I/A (mFcγRII selectivity)” value turned out to be 59 and the “relative I/A (mFcγRII selectivity) (mIgG1 = 1)” value was determined as 44.
B9: the “I/A (mFcγRII selectivity)” value was determined as 35.1 and the “relative I/A (mFcγRII selectivity) (mIgG1 = 1)” value came to 26.2.
